Experimental data as given in patent US20180258163A1 (Chugai, published 2018).
Residue numbers refer to the chain shown, from its start. Numbers in names are those of the source.

T1: soluble human FcγRIIb (human, UniProt P31994 43-217, limits assumed)
T1 construct: soluble His-tagged form; also called hFcγRIIb
T1 sequence (looked up): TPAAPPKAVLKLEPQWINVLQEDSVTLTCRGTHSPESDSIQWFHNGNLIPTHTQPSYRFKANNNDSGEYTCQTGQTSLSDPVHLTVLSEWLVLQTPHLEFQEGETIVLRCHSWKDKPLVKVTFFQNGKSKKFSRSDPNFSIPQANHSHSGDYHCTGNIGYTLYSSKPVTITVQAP

B1: Ab1H-P1480m/Ab1L (antibody, human IgG1, kappa, name in EU numbering)
heavy: not shown
light: DIQMTQSPSSVSASVGDRVTITCQASESIYSGLAWYQQKPGQPPKLLIYDHSTLASGVPSRFSGSGSGTEYALTISSLQPEDFATYYCQHADYAHHSDNVFGGGTKVEIKRTVAAPSVFIFPPSDEQLKSGTASVVCLLNNFYPREAKVQWKVDNALQSGNSQESVTEQDSKDSTYSLSSTLTLSKADYEKHKVYACEVTHQGLSSPVTKSFNRGEC
B2: Ab1H-P1514m/Ab1L (antibody, human IgG1, kappa, name in EU numbering)
heavy: not shown
light: B1 light
notes: copies: 2 + 2
B3: Ab1H-P1466m/Ab1L (antibody, human IgG1, kappa, name in EU numbering)
heavy: not shown
light: B1 light
notes: copies: 2 + 2
B4: Ab1H-P1513m/Ab1L (antibody, human IgG1, kappa, name in EU numbering)
heavy: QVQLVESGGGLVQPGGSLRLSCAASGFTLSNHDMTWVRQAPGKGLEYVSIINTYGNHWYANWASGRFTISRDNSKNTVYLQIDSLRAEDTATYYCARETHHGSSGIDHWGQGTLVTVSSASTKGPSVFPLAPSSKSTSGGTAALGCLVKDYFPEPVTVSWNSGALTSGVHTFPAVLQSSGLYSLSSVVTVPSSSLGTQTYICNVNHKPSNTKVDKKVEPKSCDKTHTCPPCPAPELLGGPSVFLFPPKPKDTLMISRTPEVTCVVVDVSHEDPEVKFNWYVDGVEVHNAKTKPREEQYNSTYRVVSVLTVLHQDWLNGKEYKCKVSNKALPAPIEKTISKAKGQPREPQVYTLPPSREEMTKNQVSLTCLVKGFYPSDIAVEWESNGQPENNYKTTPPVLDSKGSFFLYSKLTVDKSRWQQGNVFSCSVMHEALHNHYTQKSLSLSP
light: B1 light
notes: copies: 2 + 2
B5: Ab1H-P1515m/Ab1L (antibody, human IgG1, kappa, name in EU numbering)
heavy: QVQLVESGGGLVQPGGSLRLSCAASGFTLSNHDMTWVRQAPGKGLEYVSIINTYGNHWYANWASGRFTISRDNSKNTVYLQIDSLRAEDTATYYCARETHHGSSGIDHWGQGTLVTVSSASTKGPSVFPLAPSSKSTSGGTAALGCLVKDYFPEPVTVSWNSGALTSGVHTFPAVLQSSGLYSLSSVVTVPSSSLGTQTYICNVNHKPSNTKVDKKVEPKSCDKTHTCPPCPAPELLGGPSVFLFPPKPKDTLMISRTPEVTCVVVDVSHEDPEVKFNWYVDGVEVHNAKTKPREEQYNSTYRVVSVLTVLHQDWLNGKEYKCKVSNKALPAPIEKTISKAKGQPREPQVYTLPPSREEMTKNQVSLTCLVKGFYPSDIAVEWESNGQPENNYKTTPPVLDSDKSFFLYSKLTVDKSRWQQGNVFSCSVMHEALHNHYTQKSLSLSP
light: B1 light
notes: copies: 2 + 2
B6: Ab1H-P1481m/Ab1L (antibody, human IgG1, kappa, name in EU numbering)
heavy: not shown
light: B1 light
B7: Ab1H-P1398m/Ab1L (antibody, human IgG1, kappa, name in EU numbering)
heavy: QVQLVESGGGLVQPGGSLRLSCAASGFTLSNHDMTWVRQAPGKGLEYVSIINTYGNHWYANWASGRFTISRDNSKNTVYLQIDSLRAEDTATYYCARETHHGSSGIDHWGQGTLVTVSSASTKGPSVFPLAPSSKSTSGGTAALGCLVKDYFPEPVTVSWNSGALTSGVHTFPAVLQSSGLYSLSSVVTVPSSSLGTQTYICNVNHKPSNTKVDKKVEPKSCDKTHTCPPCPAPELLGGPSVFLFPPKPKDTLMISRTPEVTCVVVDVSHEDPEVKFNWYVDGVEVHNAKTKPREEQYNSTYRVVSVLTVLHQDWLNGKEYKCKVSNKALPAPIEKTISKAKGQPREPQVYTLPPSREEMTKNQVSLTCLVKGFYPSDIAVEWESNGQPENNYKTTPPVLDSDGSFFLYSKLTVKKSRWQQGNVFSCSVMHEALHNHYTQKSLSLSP
light: B1 light
notes: copies: 2 + 2
B8: Ab1H-P1470m/Ab1L (antibody, human IgG1, kappa, name in EU numbering)
heavy: not shown
light: B1 light
notes: copies: 2 + 2
B9: Ab1H-P1482m/Ab1L (antibody, human IgG1, kappa, name in EU numbering)
heavy: not shown
light: B1 light
B10: Ab1H-P1468m/Ab1L (antibody, human IgG1, kappa, name in EU numbering)
heavy: not shown
light: B1 light
notes: copies: 2 + 2
B11: Ab1H-P1483m/Ab1L (antibody, human IgG1, kappa, name in EU numbering)
heavy: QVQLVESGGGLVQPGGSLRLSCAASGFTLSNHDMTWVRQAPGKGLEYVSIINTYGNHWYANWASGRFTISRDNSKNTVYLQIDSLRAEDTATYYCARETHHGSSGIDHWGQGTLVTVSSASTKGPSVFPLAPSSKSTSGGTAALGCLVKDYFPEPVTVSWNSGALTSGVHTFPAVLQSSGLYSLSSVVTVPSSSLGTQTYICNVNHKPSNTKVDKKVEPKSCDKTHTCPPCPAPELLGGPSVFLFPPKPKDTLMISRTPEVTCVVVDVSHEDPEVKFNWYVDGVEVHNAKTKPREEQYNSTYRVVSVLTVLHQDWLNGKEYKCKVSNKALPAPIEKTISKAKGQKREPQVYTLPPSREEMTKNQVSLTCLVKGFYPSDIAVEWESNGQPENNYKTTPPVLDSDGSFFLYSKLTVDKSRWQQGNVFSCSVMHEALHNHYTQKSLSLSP
light: B1 light
B12: Ab1H-P1512m/Ab1L (antibody, human IgG1, kappa, name in EU numbering)
heavy: not shown
light: B1 light
notes: copies: 2 + 2
B13: Ab1H-P1469m/Ab1L (antibody, human IgG1, kappa, name in EU numbering)
heavy: not shown
light: B1 light
notes: copies: 2 + 2
B14: Ab1H-P1394m/Ab1L (antibody, human IgG1, kappa)
heavy: not shown
light: B1 light
notes: heavy chain = Ab1H with Q311K (EU); copies: 2 + 2
B15: Ab1H-P1471m/Ab1L (antibody, human IgG1, kappa, name in EU numbering)
heavy: not shown
light: B1 light
notes: copies: 2 + 2
B16: Ab1H/Ab1L035 (antibody, human IgG1, kappa)
heavy: not shown
light: B1 light with Q24R, E27R, S65R, T69R, T74K, S77R
notes: copies: 2 + 2
B17: Ab1H/Ab1L034 (antibody, human IgG1, kappa)
heavy: not shown
light: B1 light with Q24R, E27R, S52R, S56R, S65R, T69R
notes: copies: 2 + 2
B18: Ab1H/Ab1L040 (antibody, human IgG1, kappa)
heavy: not shown
light: B1 light with Q24R, E27R, G41R, Q42K, S76R, Q79K
notes: copies: 2 + 2
B19: Ab1H/Ab1L030 (antibody, human IgG1, kappa)
heavy: not shown
light: B1 light with A25R, S26R, S65R, T69R
notes: copies: 2 + 2
B20: Ab1H/Ab1L036 (antibody, human IgG1, kappa)
heavy: not shown
light: B1 light with Q24R, E27R, S65R, T69R, S76R, Q79K
notes: copies: 2 + 2
B21: Ab1H/Ab1L062 (antibody, human IgG1, kappa)
heavy: not shown
light: B1 light with S65R, Q79K
notes: copies: 2 + 2
B22: Ab1H/Ab1L039 (antibody, human IgG1, kappa)
heavy: not shown
light: B1 light with Q24R, E27R, T74K, S76R, S77R, Q79K
notes: copies: 2 + 2
B23: Ab1H/Ab1L028 (antibody, human IgG1, kappa)
heavy: not shown
light: B1 light with A25R, S26R, S52R, S56R
notes: copies: 2 + 2
B24: Ab1H/Ab1L033 (antibody, human IgG1, kappa)
heavy: not shown
light: B1 light with Q24R, E27R, G41R, Q42K, S65R, T69R
notes: copies: 2 + 2
B25: Ab1H/Ab1L038 (antibody, human IgG1, kappa)
heavy: not shown
light: B1 light with Q24R, E27R, S52R, S56R, T74K, S77R
notes: copies: 2 + 2
B26: Ab1H/Ab1L061 (antibody, human IgG1, kappa)
heavy: not shown
light: B1 light with Q42K, S76R
notes: copies: 2 + 2
B27: Ab1H/Ab1L037 (antibody, human IgG1, kappa)
heavy: not shown
light: B1 light with Q24R, E27R, G41R, Q42K, T74K, S77R
notes: copies: 2 + 2
B28: Ab1H/Ab1L029 (antibody, human IgG1, kappa)
heavy: not shown
light: B1 light with A25R, S26R, S52K, S56K
notes: copies: 2 + 2
B29: Ab1H/Ab1L025 (antibody, human IgG1, kappa)
heavy: not shown
light: B1 light with A25R, S26R, Q37R
notes: copies: 2 + 2
B30: Ab1H/Ab1L041 (antibody, human IgG1, kappa)
heavy: not shown
light: B1 light with Q24R, E27R, S52R, S56R, S76R, Q79K
notes: copies: 2 + 2
B31: Ab1H005m/Ab1L (antibody, human IgG1, kappa, name in Kabat numbering)
heavy: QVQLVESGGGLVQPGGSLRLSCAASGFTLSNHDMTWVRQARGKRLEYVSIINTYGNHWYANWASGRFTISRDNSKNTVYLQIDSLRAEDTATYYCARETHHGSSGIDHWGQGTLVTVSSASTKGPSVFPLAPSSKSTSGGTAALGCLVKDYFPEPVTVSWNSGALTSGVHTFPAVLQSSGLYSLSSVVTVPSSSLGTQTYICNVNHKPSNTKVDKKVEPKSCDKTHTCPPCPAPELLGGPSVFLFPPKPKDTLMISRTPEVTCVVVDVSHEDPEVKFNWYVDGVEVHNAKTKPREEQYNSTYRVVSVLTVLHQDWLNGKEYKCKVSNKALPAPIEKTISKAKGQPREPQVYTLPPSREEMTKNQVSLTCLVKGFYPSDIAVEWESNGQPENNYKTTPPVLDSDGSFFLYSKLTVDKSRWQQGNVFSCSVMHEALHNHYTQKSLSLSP
light: B1 light
notes: copies: 2 + 2
B32: Ab1H016/Ab1L (antibody, human IgG1, kappa, name in Kabat numbering)
heavy: not shown
light: B1 light
notes: copies: 2 + 2
B33: Ab1H014/Ab1L (antibody, human IgG1, kappa, name in Kabat numbering)
heavy: not shown
light: B1 light
notes: copies: 2 + 2
B34: Ab1H030/Ab1L (antibody, human IgG1, kappa, name in Kabat numbering)
heavy: not shown
light: B1 light
notes: copies: 2 + 2
B35: Ab1H027/Ab1L (antibody, human IgG1, kappa, name in Kabat numbering)
heavy: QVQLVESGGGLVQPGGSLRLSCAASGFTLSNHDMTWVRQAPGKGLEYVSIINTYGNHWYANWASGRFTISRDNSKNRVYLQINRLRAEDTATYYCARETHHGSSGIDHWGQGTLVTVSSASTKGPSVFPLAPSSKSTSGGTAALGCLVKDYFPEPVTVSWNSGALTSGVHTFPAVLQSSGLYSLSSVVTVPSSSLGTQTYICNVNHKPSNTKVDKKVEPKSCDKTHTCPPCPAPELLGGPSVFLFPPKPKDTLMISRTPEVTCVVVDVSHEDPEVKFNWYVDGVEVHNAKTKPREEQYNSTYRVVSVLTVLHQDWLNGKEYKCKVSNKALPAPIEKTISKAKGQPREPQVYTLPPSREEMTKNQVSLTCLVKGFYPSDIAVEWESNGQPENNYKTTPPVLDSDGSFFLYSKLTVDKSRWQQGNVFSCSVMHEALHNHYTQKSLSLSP
light: B1 light
notes: copies: 2 + 2
B36: Ab1H041m/Ab1L (antibody, human IgG1, kappa, name in Kabat numbering)
heavy: not shown
light: B1 light
notes: copies: 2 + 2
B37: Ab1H018/Ab1L (antibody, human IgG1, kappa, name in Kabat numbering)
heavy: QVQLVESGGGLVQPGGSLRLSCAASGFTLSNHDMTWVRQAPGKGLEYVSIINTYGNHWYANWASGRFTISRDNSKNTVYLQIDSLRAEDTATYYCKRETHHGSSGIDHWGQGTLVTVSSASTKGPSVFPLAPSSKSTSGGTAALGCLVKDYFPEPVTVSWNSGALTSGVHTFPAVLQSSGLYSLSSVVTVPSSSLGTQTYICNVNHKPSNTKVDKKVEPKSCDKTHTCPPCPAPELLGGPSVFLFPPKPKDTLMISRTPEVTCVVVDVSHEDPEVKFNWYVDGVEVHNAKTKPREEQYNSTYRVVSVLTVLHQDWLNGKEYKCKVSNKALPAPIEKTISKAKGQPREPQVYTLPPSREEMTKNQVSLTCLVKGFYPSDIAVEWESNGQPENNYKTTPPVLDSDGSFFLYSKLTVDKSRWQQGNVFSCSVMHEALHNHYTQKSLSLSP
light: B1 light
notes: copies: 2 + 2
B38: Ab1H045/Ab1L (antibody, human IgG1, kappa, name in Kabat numbering)
heavy: not shown
light: B1 light
notes: copies: 2 + 2
B39: Ab1H031m/Ab1L (antibody, human IgG1, kappa, name in Kabat numbering)
heavy: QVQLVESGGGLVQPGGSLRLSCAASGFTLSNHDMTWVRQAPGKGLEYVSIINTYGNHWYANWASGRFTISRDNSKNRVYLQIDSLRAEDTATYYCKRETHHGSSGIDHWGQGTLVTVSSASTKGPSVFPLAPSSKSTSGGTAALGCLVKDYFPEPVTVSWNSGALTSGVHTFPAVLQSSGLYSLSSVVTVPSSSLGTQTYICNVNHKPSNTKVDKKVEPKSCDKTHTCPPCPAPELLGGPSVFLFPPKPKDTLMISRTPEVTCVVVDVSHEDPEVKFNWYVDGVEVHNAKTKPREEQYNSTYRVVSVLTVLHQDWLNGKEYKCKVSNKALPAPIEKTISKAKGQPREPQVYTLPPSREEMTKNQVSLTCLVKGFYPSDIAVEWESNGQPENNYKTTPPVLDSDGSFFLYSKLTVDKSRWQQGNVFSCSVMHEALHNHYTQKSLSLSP
light: B1 light
notes: copies: 2 + 2
B40: Ab1H039/Ab1L (antibody, human IgG1, kappa, name in Kabat numbering)
heavy: not shown
light: B1 light
notes: copies: 2 + 2
B41: Ab1H035/Ab1L (antibody, human IgG1, kappa, name in Kabat numbering)
heavy: not shown
light: B1 light
notes: copies: 2 + 2
B42: Ab1H028/Ab1L (antibody, human IgG1, kappa, name in Kabat numbering)
heavy: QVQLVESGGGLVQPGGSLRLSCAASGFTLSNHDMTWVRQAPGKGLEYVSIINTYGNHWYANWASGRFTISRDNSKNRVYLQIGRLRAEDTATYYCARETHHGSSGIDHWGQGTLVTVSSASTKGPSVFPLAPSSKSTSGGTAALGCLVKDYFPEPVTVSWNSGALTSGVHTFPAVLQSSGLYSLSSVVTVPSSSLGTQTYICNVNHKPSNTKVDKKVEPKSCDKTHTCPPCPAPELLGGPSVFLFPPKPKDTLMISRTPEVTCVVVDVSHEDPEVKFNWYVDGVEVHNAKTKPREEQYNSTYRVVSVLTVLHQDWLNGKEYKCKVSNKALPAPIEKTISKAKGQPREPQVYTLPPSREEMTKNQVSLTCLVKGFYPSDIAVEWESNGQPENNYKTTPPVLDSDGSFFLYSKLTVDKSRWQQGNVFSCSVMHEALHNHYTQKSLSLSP
light: B1 light
notes: copies: 2 + 2
B43: Ab1H029/Ab1L (antibody, human IgG1, kappa, name in Kabat numbering)
heavy: not shown
light: B1 light
notes: copies: 2 + 2
B44: Ab1H012/Ab1L (antibody, human IgG1, kappa, name in Kabat numbering)
heavy: not shown
light: B1 light
notes: copies: 2 + 2
B45: Ab1H010/Ab1L (antibody, human IgG1, kappa, name in Kabat numbering)
heavy: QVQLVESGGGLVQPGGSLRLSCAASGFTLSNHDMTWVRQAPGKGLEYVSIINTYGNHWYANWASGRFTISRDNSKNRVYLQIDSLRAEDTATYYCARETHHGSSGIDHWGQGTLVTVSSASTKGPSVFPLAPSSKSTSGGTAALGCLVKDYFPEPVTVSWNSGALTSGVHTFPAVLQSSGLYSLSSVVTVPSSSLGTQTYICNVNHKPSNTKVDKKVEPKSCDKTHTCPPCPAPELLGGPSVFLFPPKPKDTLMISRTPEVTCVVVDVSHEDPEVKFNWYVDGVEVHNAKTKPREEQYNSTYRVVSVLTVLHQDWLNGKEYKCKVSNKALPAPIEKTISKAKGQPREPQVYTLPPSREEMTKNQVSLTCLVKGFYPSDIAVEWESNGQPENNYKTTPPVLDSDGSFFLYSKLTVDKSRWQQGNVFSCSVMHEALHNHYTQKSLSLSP
light: B1 light
notes: copies: 2 + 2
B46: Ab1H034/Ab1L (antibody, human IgG1, kappa, name in Kabat numbering)
heavy: not shown
light: B1 light
notes: copies: 2 + 2
B47: Ab1H013/Ab1L (antibody, human IgG1, kappa, name in Kabat numbering)
heavy: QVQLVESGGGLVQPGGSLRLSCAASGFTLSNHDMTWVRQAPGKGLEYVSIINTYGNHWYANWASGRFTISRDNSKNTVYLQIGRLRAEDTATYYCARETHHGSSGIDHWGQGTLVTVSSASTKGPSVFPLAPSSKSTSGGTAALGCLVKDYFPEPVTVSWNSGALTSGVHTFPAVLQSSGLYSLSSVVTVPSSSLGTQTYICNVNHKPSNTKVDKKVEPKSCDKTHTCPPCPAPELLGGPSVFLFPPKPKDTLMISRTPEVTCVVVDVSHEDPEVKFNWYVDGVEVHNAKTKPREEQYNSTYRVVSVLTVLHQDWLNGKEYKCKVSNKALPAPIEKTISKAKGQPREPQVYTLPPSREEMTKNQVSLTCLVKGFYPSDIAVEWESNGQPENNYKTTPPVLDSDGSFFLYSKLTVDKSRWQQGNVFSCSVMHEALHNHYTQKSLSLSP
light: B1 light
notes: copies: 2 + 2

target: T1, soluble human FcγRIIb; assay: SPR, Ab-IgE complex over captured hFcγRIIb, pH 7.4, 25C
Method: (§1) Regarding the produced Fc region variant-containing antibodies, binding assays between soluble human FcγRIIb and antigen-antibody complexes were performed using BIACORE T200 (GE Healthcare). Soluble human FcγRIIb (NCBI accession NM_004001.3) was produced in the form of a His-tagged molecule by a method known in the art. An appropriate amount of an anti-His antibody was fixed onto Sensor chip CM5 (GE Healthcare) by the amine coupling method using a His capture kit (GE Healthcare) to capture human FcγRIIb. Next, an antibody-antigen complex and a running buffer (as a reference solution) were injected, and interaction was allowed to take place with the human FcγRIIb captured onto the sensor chip. 20 mM N-(2-Acetamido)-2-aminoethanesulfonic acid, 150 mM NaCl, 1.2 mM CaCl₂, and 0.05% (w/v) Tween 20 at pH 7.4 was used as the running buffer, and the respective buffer was also used to dilute the soluble human FcγRIIb. To regenerate the sensor chip, 10 mM glycine-HCl at pH 1.5 was used. All measurements were carried out at 25° C. Analyses were performed based on binding (RU) calculated from sensorgrams obtained by the measurements, and relative values when the binding amount of Ab1H/Ab1L (original Ab1) was defined as 1.00 are shown. To calculate the parameters, the BIACORE T100 Evaluation Software (GE Healthcare) was used.

| BIACORE fold (relative binding, original Ab1=1.00) [fold] | Binder |
| --- | --- |
| 1.03 | B1 |
| 1.2 | B2 |
| 1.22 | B3 |
| 1.21 | B4 |
| 1.19 | B5 |
| 1.08 | B6 |
| 1.23 | B7 |
| 1.19 | B8 |
| 1.46 | B9 |
| 1.13 | B10 |
| 1.02 | B11 |
| 1.24 | B12 |
| 1.13 | B13 |
| 1.18 | B14 |
| 1.19 | B15 |

target: T1, soluble human FcγRIIb; assay: as above; remark: another data set of the same source
Method: as §1

| BIACORE fold (relative binding, original Ab1=1.00) [fold] | Binder |
| --- | --- |
| 1.49 | B16 |
| 1.71 | B17 |
| 1.23 | B18 |
| 1.16 | B19 |
| 1.48 | B20 |
| 0.98 | B21 |
| 0.99 | B22 |
| 1.46 | B23 |
| 1.26 | B24 |
| 1.47 | B25 |
| 1.02 | B26 |
| 1.38 | B27 |
| 1.23 | B28 |
| 1.39 | B29 |
| 1.35 | B30 |

target: T1, soluble human FcγRIIb; assay: as above; remark: another data set of the same source
Method: as §1

| BIACORE fold (relative binding, original Ab1=1.00) [fold] | Binder |
| --- | --- |
| 0.92 | B31 |
| 1.04 | B32 |
| 0.91 | B33 |
| 1.27 | B34 |
| 1.21 | B35 |
| 1.52 | B36 |
| -0.01 | B37 |
| 0.76 | B38 |
| 0.06 | B39 |
| 1.57 | B40 |
| 1.28 | B41 |
| 1.37 | B42 |
| 1.33 | B43 |
| 0.96 | B44 |
| 1.05 | B45 |
| 1.21 | B46 |
| 1.02 | B47 |
